Values belong to the binder of their own block, whether it stands above or below them.
Assays:
[1] = molecular target: T1, murine galectin-9 (regular isoform), expressed in transiently transfected CHO cells (mouse, UniProt O08573 1-353); experiment: intracellular staining of galectin-9 transfected CHO cells, flow cytometry
T1 construct: Expressed from pIRES2-EGFP in CHO cells; not found on the cell surface, detected by intracellular staining of fixed cells; also called regular galectin-9; wt galectin-9
T1 sequence (O08573 other isoform, or with tags, fused parts or gaps): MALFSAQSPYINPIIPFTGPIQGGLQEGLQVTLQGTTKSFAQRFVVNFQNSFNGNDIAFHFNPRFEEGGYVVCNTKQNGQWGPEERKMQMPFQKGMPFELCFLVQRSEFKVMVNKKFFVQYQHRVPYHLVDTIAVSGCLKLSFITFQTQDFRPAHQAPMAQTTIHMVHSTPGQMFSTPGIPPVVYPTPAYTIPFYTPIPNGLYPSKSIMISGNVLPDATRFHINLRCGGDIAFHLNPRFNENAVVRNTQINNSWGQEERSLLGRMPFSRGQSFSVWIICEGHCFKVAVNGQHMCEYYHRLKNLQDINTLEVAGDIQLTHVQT

[2] = molecular target: T2, recombinant galectin-9 (r-galectin-9) (mouse, UniProt O08573 1-353); experiment: pull-down with protein G beads, SDS-PAGE, Coomassie blue
T2 construct: Any vector-derived tag is not described; also called purified recombinant galectin-9
T2 sequence (O08573 other isoform, or with tags, fused parts or gaps limits assumed): as the sequence (O08573 other isoform, or with tags, fused parts or gaps) above
From the text: (§1) FIG. 11A Both regular and long isoforms for galectin-9 (galectin-9 and galectin-9-L respectively) are able to bind to TIM-3. Protein sequences between two galectin-9 isoforms are identical except a 31 amino acid peptide insert in the hinge region of galectin-9-L. Murine cDNAs for isoforms of galectin-9 from TK-1 cells were subcloned into a eukaryotic bicistronic expression vector pIRES2-EGFP. The plasmids were transiently transfected into CHO cells respectively. Cells were fixed for intracellular staining with flTIM-3-Ig (top row graphs), sTIM-3-Ig (center row graphs), and hIgG (bottom row graphs) and detected by anti-human IgG-Fc-PE 48 hours after transfection. EGFP positive signals in FACS analyses indicated transfected cells. The anti-human IgG-Fc-PE was used to detect the binding from Ig fusions or hIgG. FIG. 11B Murine cDNAs for galectin-9 (first column graphs), -4 (second column graphs), -3 (third column graphs), and -1 (fourth column graphs) were subcloned into pIRES2-EGFP. The plasmids and the empty vector (fifth column graphs) that only produces EGFP were transiently transfected into CHO for intracellular staining by s-TIM-3-Ig respectively. The anti-human IgG-Fc-PE was used to detect sTIM-3-Ig binding. FIG. 11C Galectin-9 cDNA was subcloned into prokaryotic expression vector pTrcHis 2B. […]

[3] = molecular target: T3, galectin-9 of TK-1 cells (biotinylated membrane associated 40 to 60 kD band, 35 kD after PNGase F) (UniProt O08573-2 1-322, limits assumed, surface biotinylated with NHS-LC-Biotin); experiment: pull-down from lysate of surface biotinylated TK-1 cells, Protein G-agarose, Western blot
T3 construct: Endogenous protein pulled down from cell lysate; also called 35 kD protein
T3 sequence (O08573 other isoform, or with tags, fused parts or gaps limits assumed): as the sequence (O08573 other isoform, or with tags, fused parts or gaps) above, with D150N counted along it
Experimental: FIG. 10A TK-1 cells express the highest level of TIM-3 ligand(s). Three T cell lines, TK-1, S49.1G.3PHA 100/0, and BW1547.G.1.4, were stained by biotinylated sTIM-3-Ig (0.4 mg/ml) at 1:20 (top row graphs) and 1:50 dilutions (center row graphs), and detected by anti-human IgG-Fc-PE for the TIM-3 ligand expression. All T cell lines are stained positively by TIM-3 fusions FACS analysis, among which up to 90% of TK-1 were positively stained by both flTIM-3-Ig and sTIM-3-Ig (bottom row graphs). […] Extracellular membrane associated proteins on live TK-1 cells were biotinylated by NHS-LC-Biotin in PBS pH7.9 buffer at room temperature. Reaction was stopped by DMEM medium after 1 hour incubation. Cell lysate from the biotinylated TK-1 cells was used in pull-down experiment by incubating with 5 μg flTIM-3-Ig, sTIM-3-Ig, TIM-2-Ig, and hIgG respectively plus Protein G-agarose beads at 4° C. Protein samples eluted from beads were treated with or without PNGase F to remove N-linked sugar chains, and applied to SDS-PAGE and Western blot. Only signals from biotinylated membrane associated proteins bound to avidin conjugated peroxidase and were detected by chemiluminescent signal. […]

[4] = molecular target: T4, murine galectin-9 long isoform (galectin-9-L), expressed in transiently transfected CHO cells (mouse, UniProt O08573 1-353); experiment: intracellular staining of transfected CHO cells, anti-human IgG-Fc-PE, flow cytometry
T4 construct: Expressed from pIRES2-EGFP in CHO cells; intracellular staining of fixed cells
T4 sequence (O08573 whole entry, canonical isoform): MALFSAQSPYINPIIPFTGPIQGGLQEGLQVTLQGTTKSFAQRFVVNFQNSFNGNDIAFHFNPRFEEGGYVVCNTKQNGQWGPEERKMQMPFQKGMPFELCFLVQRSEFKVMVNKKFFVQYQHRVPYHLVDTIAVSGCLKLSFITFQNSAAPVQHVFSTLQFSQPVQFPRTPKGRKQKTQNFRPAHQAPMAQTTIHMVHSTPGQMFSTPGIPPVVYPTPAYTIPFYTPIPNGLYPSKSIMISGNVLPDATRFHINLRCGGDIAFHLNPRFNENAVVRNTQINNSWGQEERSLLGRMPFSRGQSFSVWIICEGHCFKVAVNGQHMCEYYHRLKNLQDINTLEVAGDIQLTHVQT
From the text: as §1, with “pIRES2-EGFP.” for “pIRES2-EGFP. The plasmids and the empty vector (fifth column graphs) that only produces EGFP were transiently transfected into CHO for intracellular staining by s-TIM-3-Ig respectively. The anti-human IgG-Fc-PE was used to detect sTIM-3-Ig binding. FIG. 11C Galectin-9 cDNA was subcloned into prokaryotic expression vector pTrcHis 2B.”
To confirm the interaction between galectin-9 and TIM-3, both galectin-9 isoform cDNAs were subcloned into an expression vector that bicistronically expresses EGFP protein. […] In transient transfection, expression of galectin-9 was not detected on the cell surface. […]

[5] = molecular target: T5, galectin-9 R64A (mutation in N-terminal CRD domain), expressed in CHO cells (mouse, UniProt O08573 1-353); experiment: intracellular staining of transfected CHO cells by sTIM-3-Ig, flow cytometry
T5 construct: Intracellular staining; also called mutant galectin-9 N-terminal CRD
T5 sequence (O08573 other isoform, or with tags, fused parts or gaps R64A R64A): as the sequence (O08573 other isoform, or with tags, fused parts or gaps) above, with R64A counted along it
Experimental: (§2) FIGS. 12A-12C show galectin-9 recognizes the β-galactoside bond in oligosaccharide chains of TIM-3. FIG. 12A Galectin-9 expression plasmid was transiently transfected into CHO cells and fixed for intracellular staining by sTIM-3-Ig. Incubation buffers with different concentrations from 0 to 100 mM of α-lactose were used in the experiments. Bars in the histograph represent percentage of double positive cell population for EGFP and sTIM-3-Ig staining in presence of different concentration of a-lactose. FIG. 12B Two μg of r-galectin-9 was mixed with 4 μg sTIM-3-Ig in presence of different concentration of a-lactose from 0 to 100 mM in a pull-down experiment. Elutes from protein G beads were applied to SDS-PAGE and stained by Coomassie blue. A band at 50 kD represents sTIM-3-Ig, and the one at 38 kD stands for r-galectin-9. FIG. 12C CRD domains in galectin-9 are required for interaction with TIM-3. Constructs with mutation of R64A in N-terminal CRD domain (second column graphs), R238A in C-terminal CRD domain (third column graphs), or both (fourth column graphs) were generated and subcloned into expression vector pIRES2-EGFP. CHO cells were transiently transfected by wt (first column graphs) and mutant galection-9 expression plasmids (second through fourth column graphs) for intracellular staining by sTIM-3-Ig. EGFP and anti-human IgG-Fc-PE double positive standard for interaction between galectin-9 and sTIM-3-Ig.

[6] = molecular target: T6, galectin-9 R64A and R238A (double mutation in both CRD domains), expressed in CHO cells (mouse, UniProt O08573 1-353); experiment: as above
T6 construct: Intracellular staining; also called double mutant galectin-9
T6 sequence (O08573 other isoform, or with tags, fused parts or gaps R64A R238A R64A R238A): as the sequence (O08573 other isoform, or with tags, fused parts or gaps) above, with R64A, R238A counted along it
Experimental: as §2

[7] = molecular target: T7, galectin-9 R238A (mutation in C-terminal CRD domain), expressed in CHO cells (mouse, UniProt O08573 1-353); experiment: as above
T7 construct: Intracellular staining; also called mutant galectin-9 C-terminal CRD
T7 sequence (O08573 other isoform, or with tags, fused parts or gaps R238A R238A): as the sequence (O08573 other isoform, or with tags, fused parts or gaps) above, with R238A counted along it
Experimental: as §2

binding result [1]: no binding | binding result [2]: no binding | binding result [3]: no binding (tested: 5 µg)
B1: TIM-2-Ig (Fc fusion, UniProt Q8R183 22-231, looked up)
chain: HTAVQGLAGHPVTLPCIYSTHLGGIVPMCWGLGECRHSYCIRSLIWTNGYTVTHQRNSLYQLKGNISEGNVSLTIENTVVGDGGPYCCVVEIPGAFHFVDYMLEVKPEISTSPPTRPTATGRPTTISTRSTHVPTSTRVSTSTSPTPAHTETYKPEATTFYPDQTTAEVTETLPDTPADWHNTVTSSDDPWDDNTEVIPPQKPQKNLNKG
notes: Control Ig fusion; also called TIM-2 Ig fusion; not shown: Ig part of the fusion not described

binding result [4]: binds | binding result [5]: binds | binding result [6]: no binding | binding result [7]: binds
B2: soluble Tim-3-Ig fusion protein (s-Tim-3-Ig) (Fc fusion)
chain: LEDGYKVEVGKNAYLPCSYTLPTSGTLVPMCWGKGFCPWSQCTNELLRTDERNVTYQKSSRYQLKGDLNKGDVSLIIKNVTLDDHGTYCCRIQFPGLMNDKKLELKLDIKA
modifications: biotinylated in some cell staining experiments
notes: not shown: human IgG1 Fc tail

binding result [4]: binds
B3: full-length Tim-3-Ig fusion protein (ex-Tim-3-Ig) (Fc fusion)
chain: RSLEDGYKVEVGKNAYLPCSYTLPTSGTLVPMCWGKGFCPWSQCTNELLRTDERNVTYQKSSRYQLKGDLNKGDVSLIIKNVTLDDHGTYCCRIQFPGLMNDKKLELKLDIKAAKVTPAQTAHGDSTTASPRTLTTERNGSETQTLVTLHNNNGTKISTWADEIKDSGETIRTA
modifications: biotinylated in some cell staining experiments
notes: expressed in NS.1 cells; also called flTIM-3-Ig; flTim-3-Ig; not shown: human IgG1 Fc tail

Source: patent US20130183688A1 (BRIGHAM AND WOMEN S HOSPITAL, published 2013)
